Key:
[1] = biological target: human chymotrypsin C (CTRC) mutant N52S, active enzyme (human) (UniProt Q99895); experiment: equilibrium inhibitor binding assay
[2] = biological target: human chymotrypsin C (CTRC), wild type, active enzyme (human) (UniProt Q99895); experiment: equilibrium inhibitor binding assay
[3] = steady-state kinetics, purified CTRC; settings: glycan lost; control: wild type (HEK 293T)
[4] = casein digestion time course, SDS-PAGE; settings: glycan lost; control: wild type (HEK 293T)
[5] = Leu81-Glu82 cleavage time course, SDS-PAGE; settings: glycan lost; control: wild type (HEK 293T)
[6] = trypsin-induced mobility shift on reducing SDS-PAGE; settings: glycan lost; control: wild type
[7] = active site titration of media with SGPI-2; settings: glycan lost; control: wild type
[8] = CTRC activity of HEK 293T conditioned media; settings: glycan gained; control: wild type

“Schistocerca gregaria proteinase inhibitor-2 (SGPI-2) (natural protein)” gave a Kd [1] of 2.7 nM and a Kd [2] of 3.9 nM.

B1: human chymotrypsin C (CTRC): N52S (protein)
parent chain: MLGITVLAALLACASSCGVPSFPPNLSARVVGGEDARPHSWPWQISLQYLKNDTWRHTCGGTLIASNFVLTAAHCISNTRTYRVAVGKNNLEVEDEEGSLFVGVDTIHVHKRWNALLLRNDIALIKLAEHVELSDTIQVACLPEKDSLLPKDYPCYVTGWGRLWTNGPIADKLQQGLQPVVDHATCSRIDWWGFRVKKTMVCAGGDGVISACNGDSGGPLNCQLENGSWEVFGIVSFGSRRGCNTRKKPVVYTRVSAYIDWINEKMQL
With B1 the “enzymatic_activity, kcat_Km” value [3] was “no change, 1.2 × 106 vs 1.2 × 106”, the enzymatic_activity [4] was “no change” and the enzymatic_activity [5] was “no change”. The “other: proteolytic processing” value [6] was “no change”.

B2: rat CTRC: N90S (protein)
parent chain: MLGITVLAAILACASCCGNPAFPPNLSTRVVGGEDAVPNSWPWQVSLQYLKDDTWRHTCGGSLITTSHVLTAAHCINKDFTYRVGLGKYNLTVEDEEGSVYAEVDTIYVHEKWNRLFLWNDIAIIKLAEPVELSNTIQVACIPEEGSLLPQDYPCYVTGWGRLWTNGPIAEVLQQGLQPIVSHATCSRLDWWFIKVRKTMVCAGGDGVISACNGDSGGPLNCQAEDGSWQVHGIVSFGSSSGCNVHKKPVVFTRVSAYNDWINEKIQL
In the case of B2, the “expression_or_secretion, other: concentration in medium” value [7] is reported as “decreases, 62.4 vs 175”.

B3: bovine CTRC: E92T (protein)
parent chain: MLGITVFTTFLAYASSCGAPIFQPNLSARVVGGEDAIPHSWPWQISLQYLRDNTWRHTCGGTLITPNHVLTAAHCISNTLTYRVALGKNNLEVEDEAGSLYVGVDTIFVHEKWNSFLVRNDIALIKLAETVELSDTIQVACLPEEGSLLPQDYPCFVTGWGRLYTNGPIAAELQQGLQPVVDYATCSQRDWWGTTVKETMVCAGGDGVISACNGDSGGPLNCQAENGNWDVRGIVSFGSGLSCNTFKKPTVFTRVSAYIDWINQKLQL
With B3 the “expression_or_secretion, fold_change” value [8] was “no change”.
